This is an account of results in patent US20200299706A1 (COLD SPRING HARBOR LABORATORY, published 2020).

Data set [1] concerns the molecule itself. Kind of data set: yeast two-hybrid, FIG. 5C. The method, then:
(§1) Protein interaction assays in yeast were performed using the Matchmaker Gold Yeast Two-Hybrid System (Clontech) as described before (Park et al., 2014b). The coding sequences for bait proteins were cloned into the pGBKT7 vector, and the resulting vectors were transformed into the Y2HGold yeast strain. The coding sequences for prey proteins were cloned into the pGADT7 AD vector, and the resulting vectors were transformed into the Y187 yeast strain. After mating the two yeast strains expressing bait and prey proteins, diploid yeast cells were selected and grown on dropout medium without leucine and tryptophan. To assay protein-protein interactions, clones were grown on triple-dropout medium without leucine, tryptophan, and histidine for 3 d at 30° C. To block auto-activation, 3 mM 3-amino-1,2,4-triazole (3-AT) were added or adenine was removed from the triple-dropout medium. All primer sequences used for cloning can be found in Table 2.

Data set [2] deals with the molecule itself. Kind of data set: yeast two-hybrid (Matchmaker Gold; growth on -L-T-H medium). The method, then:
as §1

B1: J2 (Jointless-2, Solyc12g038510) SEP4-homolog MADS-box protein (other)
chain: MGRGRVELKRIENKINRQVTFAKRRNGLLKKAYELSILCDAEVALIIFSSRGKLYEFSSASSMMTTLEKYQQCSYASLDPMLPVSDTQMNYNEYVRLKARVELLQRSQRHILGEDLGTLNSKELEQLEHQLDASLKKVRSKKTQSMLDQLADLQEKEQMLEEANKQLKNKLEESAARIPLGLSWGNNGGQTMEYNRLPPQTTAQPFFQPLRLNSSSPQFGYNPNMGANDHEVNAATTAHNINGFIPGWML
In the case of B1, the binding result in data set [1] is given as “binds”.

B2: EJ2 (Enhancer-of-Jointless-2, Solyc03g114840) SEP4-homolog MADS-box protein (other)
chain: MGRGRVELKRIENKINRQVTFAKRRNGLLKKAYELSVLCDAEVALIIFSNRGKLYEFCSTSSMVKTIEKYQRCSYATLEANQSVTDTQNNYHEYLRLKARVELLQRSQRNFLGEDLGTLSSKDLEQLENQLESSLKQIRSRKTQFMLDQLADLQQKEQMLAESNRLLRRKLEESVAGFPLRLCWEDGGDHQLMHQQNRLPNTEGFFQPLGLHSSSPHFGYNPVNTDEVNAAATAHNMNGFIHGWML
On to B2, for which the binding result in data set [2] is “no binding”.
